Laboratory results: the supplement of paper PMC5998384

Legend:
[1] = tested on: HeLa Kyoto; assay: solubility in G1/S (NP-40 vs SDS abundance) (log2 ratio); higher = more soluble; details: cell cycle stage: G1/S
[2] = tested on: HeLa Kyoto; assay: thermal stability score vs G1/S (z-score of summed log2 fold changes over temperatures); higher = more thermally stable than in G1/S
[3] = tested on: HeLa Kyoto; assay: solubility change mitosis vs G1/S (difference of NP-40 vs SDS log2 ratios) (log2 ratio difference); higher = more soluble in mitosis
[4] = tested on: HeLa Kyoto; assay: melting temperature (median over replicates), in situ; higher = more thermally stable
[5] = cell cycle stage: early G1 (4.5 h after nocodazole release)
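Throughout, for melting temperature (median over replicates), in situ: HeLa Kyoto cells synchronized by double thymidine or nocodazole block, proteins quantified by TMT10plex mass spectrometry, three independent biological replicates.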
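Throughout, for solubility change mitosis vs G1/S (difference of NP-40 vs SDS log2 ratios): synchronized HeLa Kyoto cells (double thymidine block for G1/S, nocodazole release for mitosis), protein amounts in NP-40 versus SDS lysates quantified by mass spectrometry, three biological replicates.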
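Throughout, for solubility in G1/S (NP-40 vs SDS abundance): HeLa Kyoto cells arrested at G1/S by double thymidine block, proteins quantified by TMT10plex mass spectrometry in mild NP-40 versus SDS extracts, three biological replicates.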
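Throughout, for thermal stability score vs G1/S (z-score of summed log2 fold changes over temperatures): synchronized HeLa Kyoto cells, proteins quantified by TMT10plex mass spectrometry, three biological replicates, mitosis taken 0.5 h after nocodazole release, G1/S directly after double thymidine block.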

Row | Sequence | solubility in G1/S (log2) [1] | thermal stability score [2, 5] | thermal stability score ([2]; cell cycle stage: mitosis) | solubility change mitosis (log2) [3] | melting temperature ([4]; cell cycle stage: G1/S) | melting temperature ([4]; cell cycle stage: mitosis)
1 | MEPLAAYPLKCSGPRAKVFAVLLSIVLCTVTLFLLQLKFLKPKINSFYAFEVKDAKGRTVSLEKYKGKVSLVVNVASDCQLTDRNYLGLKELHKEFGPSHFSVLAFPCNQFGESEPRPSKEVESFARKNYGVTFPIFHKIKILGSEGEPAFRFLVDSSKKEPRWNFWKYLVNPEGQVVKFWKPEEPIEVIRPDIAALVRQVIIKKKEDL [GPX8] | 0.0659 | 3.63 | 4.95 | -0.208 | 52.8 °C | 52.3 °C
2 | MEPSSLELPADTVQRIAAELKCHPTDERVALHLDEEDKLRHFRECFYIPKIQDLPPVDLSLVNKDENAIYFLGNSLGLQPKMVKTYLEEELDKWAKIAAYGHEVGKRPWITGDESIVGLMKDIVGANEKEIALMNALTVNLHLLMLSFFKPTPKRYKILLEAKAFPSDHYAIESQLQLHGLNIEESMRMIKPREGEETLRIEDILEVIEKEGDSIAVILFSGVHFYTGQHFNIPAITKAGQAKGCYVGFDLAHAVGNVELYLHDWGVDFACWCSYKYLNAGAGGIAGAFIHEKHAHTIKPALVGWFGHELSTRFKMDNKLQLIPGVCGFRISNPPILLVCSLHASLEIFKQATMKALRKKSVLLTGYLEYLIKHNYGKDKAATKKPVVNIITPSHVEERGCQLTITFSVPNKDVFQELEKRGVVCDKRNPNGIRVAPVPLYNSFHDVYKFTNLLTSILDSAETKN [KYNU] | 0.121 | -0.273 | -0.415 | -0.229 | 61.5 °C | 62.3 °C
3 | MEQLRAAARLQIVLGHLGRPSAGAVVAHPTSGTISSASFHPQQFQYTLDNNVLTLEQRKFYEENGFLVIKNLVPDADIQRFRNEFEKICRKEVKPLGLTVMRDVTISKSEYAPSEKMITKVQDFQEDKELFRYCTLPEILKYVECFTGPNIMAMHTMLINKPPDSGKKTSRHPLHQDLHYFPFRPSDLIVCAWTAMEHISRNNGCLVVLPGTHKGSLKPHDYPKWEGGVNKMFHGIQDYEENKARVHLVMEKGDTVFFHPLLIHGSGQNKTQGFRKAISCHFASADCHYIDVKGTSQENIEKEVVGIAHKFFGAENSVNLKDIWMFRARLVKGERTNL [PHYH] | 0.298 | 2.97 | 2.13 | -0.191 | 51.6 °C | 52.4 °C
4 | MEQVAEGARVTAVPVSAADSTEELAEVEEGVGVVGEDNDAAARGAEAFGDSEEDGEDVFEVEKILDMKTEGGKVLYKVRWKGYTSDDDTWEPEIHLEDCKEVLLEFRKKIAENKAKAVRKDIQRLSLNNDIFEANSDSDQQSETKEDTSPKKKKKKLRQREEKSPDDLKKKKAKAGKLKDKSKPDLESSLESLVFDLRTKKRISEAKEELKESKKPKKDEVKETKELKKVKKGEIRDLKTKTREDPKENRKTKKEKFVESQVESESSVLNDSPFPEDDSEGLHSDSREEKQNTKSARERAGQDMGLEHGFEKPLDSAMSAEEDTDVRGRRKKKTPRKAEDTRENRKLENKNAFLEKKTVPKKQRNQDRSKSAAELEKLMPVSAQTPKGRRLSGEERGLWSTDSAEEDKETKRNESKEKYQKRHDSDKEEKGRKEPKGLKTLKEIRNAFDLFKLTPEEKNDVSENNRKREEIPLDFKTIDDHKTKENKQSLKERRNTRDETDTWAYIAAEGDQEVLDSVCQADENSDGRQQILSLGMDLQLEWMKLEDFQKHLDGKDENFAATDAIPSNVLRDAVKNGDYITVKVALNSNEEYNLDQEDSSGMTLVMLAAAGGQDDLLRLLITKGAKVNGRQKNGTTALIHAAEKNFLTTVAILLEAGAFVNVQQSNGETALMKACKRGNSDIVRLVIECGADCNILSKHQNSALHFAKQSNNVLVYDLLKNHLETLSRVAEETIKDYFEARLALLEPVFPIACHRLCEGPDFSTDFNYKPPQNIPEGSGILLFIFHANFLGKEVIARLCGPCSVQAVVLNDKFQLPVFLDSHFVYSFSPVAGPNKLFIRLTEAPSAKVKLLIGAYRVQLQ [MPHOSPH8] | -1.16 | 0.43 | 1.88 | 0.82 | 49.3 °C | 50 °C
5 | MEQVEILRKFIQRVQAMKSPDHNGEDNFARDFMRLRRLSTKYRTEKIYPTATGEKEENVKKNRYKDILPFDHSRVKLTLKTPSQDSDYINANFIKGVYGPKAYVATQGPLANTVIDFWRMIWEYNVVIIVMACREFEMGRKKCERYWPLYGEDPITFAPFKISCEDEQARTDYFIRTLLLEFQNESRRLYQFHYVNWPDHDVPSSFDSILDMISLMRKYQEHEDVPICIHCSAGCGRTGAICAIDYTWNLLKAGKIPEEFNVFNLIQEMRTQRHSAVQTKEQYELVHRAIAQLFEKQLQLYEIHGAQKIADGVNEINTENMVSSIEPEKQDSPPPKPPRTRSCLVEGDAKEEILQPPEPHPVPPILTPSPPSAFPTVTTVWQDNDRYHPKPVLHMVSSEQHSADLNRNYSKSTELPGKNESTIEQIDKKLERNLSFEIKKVPLQEGPKSFDGNTLLNRGHAIKIKSASPCIADKISKPQELSSDLNVGDTSQNSCVDCSVTQSNKVSVTPPEESQNSDTPPRPDRLPLDEKGHVTWSFHGPENAIPIPDLSEGNSSDINYQTRKTVSLTPSPTTQVETPDLVDHDNTSPLFRTPLSFTNPLHSDDSDSDERNSDGAVTQNKTNISTASATVSAATSTESISTRKVLPMSIARHNIAGTTHSGAEKDVDVSEDSPPPLPERTPESFVLASEHNTPVRSEWSELQSQERSEQKKSEGLITSENEKCDHPAGGIHYEMCIECPPTFSDKREQISENPTEATDIGFGNRCGKPKGPRDPPSEWT [PTPN12] | 0.143 | -0.24 | 0.678 | -0.242 | 49.4 °C | 49.8 °C
6 | MEQWRQCGRWLIDCKVLPPNHRVVWPSAVVFDLAQALRDGVLLCQLLHNLSPGSIDLKDINFRPQMSQFLCLKNIRTFLKVCHDKFGLRNSELFDPFDLFDVRDFGKVISAVSRLSLHSIAQNKGIRPFPSEETTENDDDVYRSLEELADEHDLGEDIYDCVPCEDGGDDIYEDIIKVEVQQPMIRYMQKMGMTEDDKRNCCLLEIQETEAKYYRTLEDIEKNYMSPLRLVLSPADMAAVFINLEDLIKVHHSFLRAIDVSVMVGGSTLAKVFLDFKERLLIYGEYCSHMEHAQNTLNQLLASREDFRQKVEECTLKVQDGKFKLQDLLVVPMQRVLKYHLLLKELLSHSAERPERQQLKEALEAMQDLAMYINEVKRDKETLRKISEFQSSIENLQVKLEEFGRPKIDGELKVRSIVNHTKQDRYLFLFDKVVIVCKRKGYSYELKEIIELLFHKMTDDPMNNKDVKKSHGKMWSYGFYLIHLQGKQGFQFFCKTEDMKRKWMEQFEMAMSNIKPDKANANHHSFQMYTFDKTTNCKACKMFLRGTFYQGYMCTKCGVGAHKECLEVIPPCKFTSPADLDASGAGPGPKMVAMQNYHGNPAPPGKPVLTFQTGDVLELLRGDPESPWWEGRLVQTRKSGYFPSSSVKPCPVDGRPPISRPPSREIDYTAYPWFAGNMERQQTDNLLKSHASGTYLIRERPAEAERFAISIKFNDEVKHIKVVEKDNWIHITEAKKFDSLLELVEYYQCHSLKESFKQLDTTLKYPYKSRERSASRASSRSPASCASYNFSFLSPQGLSFASQGPSAPFWSVFTPRVIGTAVARYNFAARDMRELSLREGDVVRIYSRIGGDQGWWKGETNGRIGWFPSTYVEEEGIQ [VAV2] | -0.0231 | 0.0861 | 1.36 | -0.269 | 48.7 °C | 48.9 °C
7 | MERAGATSRGGQAPGFLLRLHTEGRAEAARVQEQDLRQWGLTGIHLRSYQLEGVNWLAQRFHCQNGCILGDEMGLGKTCQTIALFIYLAGRLNDEGPFLILCPLSVLSNWKEEMQRFAPGLSCVTYAGDKEERACLQQDLKQESRFHVLLTTYEICLKDASFLKSFPWSVLVVDEAHRLKNQSSLLHKTLSEFSVVFSLLLTGTPIQNSLQELYSLLSFVEPDLFSKEEVGDFIQRYQDIEKESESASELHKLLQPFLLRRVKAEVATELPKKTEVVIYHGMSALQKKYYKAILMKDLDAFENETAKKVKLQNILSQLRKCVDHPYLFDGVEPEPFEVGDHLTEASGKLHLLDKLLAFLYSGGHRVLLFSQMTQMLDILQDYMDYRGYSYERVDGSVRGEERHLAIKNFGQQPIFVFLLSTRAGGVGMNLTAADTVIFVDSDFNPQNDLQAAARAHRIGQNKSVKVIRLIGRDTVEEIVYRKAASKLQLTNMIIEGGHFTLGAQKPAADADLQLSEILKFGLDKLLASEGSTMDEIDLESILGETKDGQWVSDALPAAEGGSRDQEEGKNHMYLFEGKDYSKEPSKEDRKSFEQLVNLQKTLLEKASQEGRSLRNKGSVLIPGLVEGSTKRKRVLSPEELEDRQKKRQEAAAKRRRLIEEKKRQKEEAEHKKKMAWWESNNYQSFCLPSEESEPEDLENGEESSAELDYQDPDATSLKYVSGDVTHPQAGAEDALIVHCVDDSGHWGRGGLFTALEKRSAEPRKIYELAGKMKDLSLGGVLLFPVDDKESRNKGQDLLALIVAQHRDRSNVLSGIKMAALEEGLKKIFLAAKKKKASVHLPRIGHATKGFNWYGTERLIRKHLAARGIPTYIYYFPRSKSAVLHSQSSSSSSRQLVP [CHD1L] | -0.105 | 0.274 | 0.334 | -0.0342 | 46.9 °C | 49 °C
8 | MERASERRTASALFAGFRALGLFSNDIPHVVRFSALKRRFYVTTCVGKSFHTYDVQKLSLVAVSNSVPQDICCMAADGRLVFAAYGNVFSAFARNKEIVHTFKGHKAEIHFLQPFGDHIISVDTDGILIIWHIYSEEEYLQLTFDKSVFKISAILHPSTYLNKILLGSEQGSLQLWNVKSNKLLYTFPGWKVGVTALQQAPAVDVVAIGLMSGQVIIHNIKFNETLMKFRQDWGPITSISFRTDGHPVMAAGSPCGHIGLWDLEDKKLINQMRNAHSTAIAGLTFLHREPLLVTNGADNALRIWIFDGPTGEGRLLRFRMGHSAPLTNIRYYGQNGQQILSASQDGTLQSFSTVHEKFNKSLGHGLINKKRVKRKGLQNTMSVRLPPITKFAAEEARESDWDGIIACHQGKLSCSTWNYQKSTIGAYFLKPKELKKDDITATAVDITSCGNFAVIGLSSGTVDVYNMQSGIHRGSFGKDQAHKGSVRGVAVDGLNQLTVTTGSEGLLKFWNFKNKILIHSVSLSSSPNIMLLHRDSGILGLALDDFSISVLDIETRKIVREFSGHQGQINDMAFSPDGRWLISAAMDCSIRTWDLPSGCLIDCFLLDSAPLNVSMSPTGDFLATSHVDHLGIYLWSNISLYSVVSLRPLPADYVPSIVMLPGTCQTQDVEVSEETVEPSDELIEYDSPEQLNEQLVTLSLLPESRWKNLLNLDVIKKKNKPKEPPKVPKSAPFFIPTIPGLVPRYAAPEQNNDPQQSKVVNLGVLAQKSDFCLKLEEGLVNNKYDTALNLLKESGPSGIETELRSLSPDCGGSIEVMQSFLKMIGMMLDRKRDFELAQAYLALFLKLHLKMLPSEPVLLEEITNLSSQVEENWTHLQSLFNQSMCILNYLKSALL [WDR36] | -1.46 | 0.383 | 0.754 | 0.613 | 50.5 °C | 50.8 °C
9 | MERAVPLAVPLGQTEVFQALQRLHMTIFSQSVSPCGKFLAAGNNYGQIAIFSLSSALSSEAKEESKKPVVTFQAHDGPVYSMVSTDRHLLSAGDGEVKAWLWAEMLKKGCKELWRRQPPYRTSLEVPEINALLLVPKENSLILAGGDCQLHTMDLETGTFTRVLRGHTDYIHCLALRERSPEVLSGGEDGAVRLWDLRTAKEVQTIEVYKHEECSRPHNGRWIGCLATDSDWMVCGGGPALTLWHLRSSTPTTIFPIRAPQKHVTFYQDLILSAGQGRCVNQWQLSGELKAQVPGSSPGLLSLSLNQQPAAPECKVLTAAGNSCRVDVFTNLGYRAFSLSF [THOC6] | -0.108 | -0.465 | -0.675 | 0.108 | 51.8 °C | 51.2 °C
